The values that follow come from patent publication US20140087995A1 (published 2014).

Numbered stars: 1 amine (or outer) side, 2 acyl side, 3 side chain; on linkers, the order of the positions; unused ones are H or OH. Bridge positions count the residues as written; N and C are the ends. Side chains are listed from the residue outwards. Ends that are not written are not given here. * marks the point of attachment. C20 diacid = O=C(O)CCCCCCCCCCCCCCCCCCC(=O)*; γGlu = O=C(O)[C@H](CCC(=O)[*:2])N[*:1]

First the molecules themselves.
T1: human calcitonin receptor (human, UniProt P30988 25-474)
T1 construct: whole, on cells; also called hCTR; hCT
T1 sequence (looked up): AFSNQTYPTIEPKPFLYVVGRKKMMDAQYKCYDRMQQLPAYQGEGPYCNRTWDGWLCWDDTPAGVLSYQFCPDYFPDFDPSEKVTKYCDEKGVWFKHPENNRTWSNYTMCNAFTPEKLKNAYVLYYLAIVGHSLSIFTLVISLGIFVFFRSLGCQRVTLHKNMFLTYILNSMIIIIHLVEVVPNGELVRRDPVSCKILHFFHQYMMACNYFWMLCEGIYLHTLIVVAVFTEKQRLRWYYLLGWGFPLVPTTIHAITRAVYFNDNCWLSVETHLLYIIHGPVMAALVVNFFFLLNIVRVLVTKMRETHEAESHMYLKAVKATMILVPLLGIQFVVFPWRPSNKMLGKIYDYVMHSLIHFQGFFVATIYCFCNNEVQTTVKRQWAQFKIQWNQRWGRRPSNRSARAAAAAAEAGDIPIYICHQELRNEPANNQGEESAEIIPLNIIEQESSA

B1: N^ε1-[(4S)-4-carboxy-4-(19-carboxynonadecanoylamino)butanoyl]-[Arg17,Pro21,Pro27,Glu35]-h-amylin (peptide)
peptide: K([γGlu-C20 diacid])CNTATCATQRLANFLRHSSPNFGAIPSSTNVGSETY-NH2
modifications: disulfide 2-7; N-terminus assumed
SMILES: CC[C@H](C)[C@H](NC(=O)[C@H](C)NC(=O)CNC(=O)[C@H](Cc1ccccc1)NC(=O)[C@H](CC(N)=O)NC(=O)[C@@H]1CCCN1C(=O)[C@H](CO)NC(=O)[C@H](CO)NC(=O)[C@H](Cc1c[nH]cn1)NC(=O)[C@H](CCCNC(=N)N)NC(=O)[C@H](CC(C)C)NC(=O)[C@H](Cc1ccccc1)NC(=O)[C@H](CC(N)=O)NC(=O)[C@H](C)NC(=O)[C@H](CC(C)C)NC(=O)[C@H](CCCNC(=N)N)NC(=O)[C@H](CCC(N)=O)NC(=O)[C@@H](NC(=O)[C@H](C)NC(=O)[C@@H]1CSSC[C@H](NC(=O)[C@@H](N)CCCCNC(=O)CC[C@H](NC(=O)CCCCCCCCCCCCCCCCCCC(=O)O)C(=O)O)C(=O)N[C@@H](CC(N)=O)C(=O)N[C@@H]([C@@H](C)O)C(=O)N[C@@H](C)C(=O)N[C@@H]([C@@H](C)O)C(=O)N1)[C@@H](C)O)C(=O)N1CCC[C@H]1C(=O)N[C@@H](CO)C(=O)N[C@@H](CO)C(=O)N[C@H](C(=O)N[C@@H](CC(N)=O)C(=O)N[C@H](C(=O)NCC(=O)N[C@@H](CO)C(=O)N[C@@H](CCC(=O)O)C(=O)N[C@H](C(=O)N[C@@H](Cc1ccc(O)cc1)C(N)=O)[C@@H](C)O)C(C)C)[C@@H](C)O
notes: also called compound 27
B2: N^ε1-[(4S)-4-carboxy-4-(19-carboxynonadecanoylamino)butanoyl]-[Glu14,Arg17,Pro21,Pro27,Arg35]-h-amylin (peptide)
peptide: K([γGlu-C20 diacid])CNTATCATQRLAEFLRHSSPNFGAIPSSTNVGSRTY-NH2
modifications: disulfide 2-7; N-terminus assumed
SMILES: CC[C@H](C)[C@H](NC(=O)[C@H](C)NC(=O)CNC(=O)[C@H](Cc1ccccc1)NC(=O)[C@H](CC(N)=O)NC(=O)[C@@H]1CCCN1C(=O)[C@H](CO)NC(=O)[C@H](CO)NC(=O)[C@H](Cc1c[nH]cn1)NC(=O)[C@H](CCCNC(=N)N)NC(=O)[C@H](CC(C)C)NC(=O)[C@H](Cc1ccccc1)NC(=O)[C@H](CCC(=O)O)NC(=O)[C@H](C)NC(=O)[C@H](CC(C)C)NC(=O)[C@H](CCCNC(=N)N)NC(=O)[C@H](CCC(N)=O)NC(=O)[C@@H](NC(=O)[C@H](C)NC(=O)[C@@H]1CSSC[C@H](NC(=O)[C@@H](N)CCCCNC(=O)CC[C@H](NC(=O)CCCCCCCCCCCCCCCCCCC(=O)O)C(=O)O)C(=O)N[C@@H](CC(N)=O)C(=O)N[C@@H]([C@@H](C)O)C(=O)N[C@@H](C)C(=O)N[C@@H]([C@@H](C)O)C(=O)N1)[C@@H](C)O)C(=O)N1CCC[C@H]1C(=O)N[C@@H](CO)C(=O)N[C@@H](CO)C(=O)N[C@H](C(=O)N[C@@H](CC(N)=O)C(=O)N[C@H](C(=O)NCC(=O)N[C@@H](CO)C(=O)N[C@@H](CCCNC(=N)N)C(=O)N[C@H](C(=O)N[C@@H](Cc1ccc(O)cc1)C(N)=O)[C@@H](C)O)C(C)C)[C@@H](C)O
notes: also called compound 51
B3: N^ε1-[(4S)-4-carboxy-4-(19-carboxynonadecanoylamino)butanoyl]-[His14,Arg17,Pro21,Pro27,His35]-h-amylin (peptide)
peptide: K([γGlu-C20 diacid])CNTATCATQRLAHFLRHSSPNFGAIPSSTNVGSHTY-NH2
modifications: disulfide 2-7; N-terminus assumed
SMILES: CC[C@H](C)[C@H](NC(=O)[C@H](C)NC(=O)CNC(=O)[C@H](Cc1ccccc1)NC(=O)[C@H](CC(N)=O)NC(=O)[C@@H]1CCCN1C(=O)[C@H](CO)NC(=O)[C@H](CO)NC(=O)[C@H](Cc1c[nH]cn1)NC(=O)[C@H](CCCNC(=N)N)NC(=O)[C@H](CC(C)C)NC(=O)[C@H](Cc1ccccc1)NC(=O)[C@H](Cc1c[nH]cn1)NC(=O)[C@H](C)NC(=O)[C@H](CC(C)C)NC(=O)[C@H](CCCNC(=N)N)NC(=O)[C@H](CCC(N)=O)NC(=O)[C@@H](NC(=O)[C@H](C)NC(=O)[C@@H]1CSSC[C@H](NC(=O)[C@@H](N)CCCCNC(=O)CC[C@H](NC(=O)CCCCCCCCCCCCCCCCCCC(=O)O)C(=O)O)C(=O)N[C@@H](CC(N)=O)C(=O)N[C@@H]([C@@H](C)O)C(=O)N[C@@H](C)C(=O)N[C@@H]([C@@H](C)O)C(=O)N1)[C@@H](C)O)C(=O)N1CCC[C@H]1C(=O)N[C@@H](CO)C(=O)N[C@@H](CO)C(=O)N[C@H](C(=O)N[C@@H](CC(N)=O)C(=O)N[C@H](C(=O)NCC(=O)N[C@@H](CO)C(=O)N[C@@H](Cc1c[nH]cn1)C(=O)N[C@H](C(=O)N[C@@H](Cc1ccc(O)cc1)C(N)=O)[C@@H](C)O)C(C)C)[C@@H](C)O
notes: also called compound 66
B4: N^ε1-[(4S)-4-carboxy-4-(19-carboxynonadecanoylamino)butanoyl]-[Arg17,Pro21,Pro27,Lys35]-h-amylin (peptide)
peptide: K([γGlu-C20 diacid])CNTATCATQRLANFLRHSSPNFGAIPSSTNVGSKTY-NH2
modifications: disulfide 2-7; N-terminus assumed
SMILES: CC[C@H](C)[C@H](NC(=O)[C@H](C)NC(=O)CNC(=O)[C@H](Cc1ccccc1)NC(=O)[C@H](CC(N)=O)NC(=O)[C@@H]1CCCN1C(=O)[C@H](CO)NC(=O)[C@H](CO)NC(=O)[C@H](Cc1c[nH]cn1)NC(=O)[C@H](CCCNC(=N)N)NC(=O)[C@H](CC(C)C)NC(=O)[C@H](Cc1ccccc1)NC(=O)[C@H](CC(N)=O)NC(=O)[C@H](C)NC(=O)[C@H](CC(C)C)NC(=O)[C@H](CCCNC(=N)N)NC(=O)[C@H](CCC(N)=O)NC(=O)[C@@H](NC(=O)[C@H](C)NC(=O)[C@@H]1CSSC[C@H](NC(=O)[C@@H](N)CCCCNC(=O)CC[C@H](NC(=O)CCCCCCCCCCCCCCCCCCC(=O)O)C(=O)O)C(=O)N[C@@H](CC(N)=O)C(=O)N[C@@H]([C@@H](C)O)C(=O)N[C@@H](C)C(=O)N[C@@H]([C@@H](C)O)C(=O)N1)[C@@H](C)O)C(=O)N1CCC[C@H]1C(=O)N[C@@H](CO)C(=O)N[C@@H](CO)C(=O)N[C@H](C(=O)N[C@@H](CC(N)=O)C(=O)N[C@H](C(=O)NCC(=O)N[C@@H](CO)C(=O)N[C@@H](CCCCN)C(=O)N[C@H](C(=O)N[C@@H](Cc1ccc(O)cc1)C(N)=O)[C@@H](C)O)C(C)C)[C@@H](C)O
notes: also called compound 35
B5: N^ε1-[(4S)-4-carboxy-4-(19-carboxynonadecanoylamino)butanoyl]-[Arg17,Pro21,Pro27,His35]-h-amylin (peptide)
peptide: K([γGlu-C20 diacid])CNTATCATQRLANFLRHSSPNFGAIPSSTNVGSHTY-NH2
modifications: disulfide 2-7; N-terminus assumed
SMILES: CC[C@H](C)[C@H](NC(=O)[C@H](C)NC(=O)CNC(=O)[C@H](Cc1ccccc1)NC(=O)[C@H](CC(N)=O)NC(=O)[C@@H]1CCCN1C(=O)[C@H](CO)NC(=O)[C@H](CO)NC(=O)[C@H](Cc1c[nH]cn1)NC(=O)[C@H](CCCNC(=N)N)NC(=O)[C@H](CC(C)C)NC(=O)[C@H](Cc1ccccc1)NC(=O)[C@H](CC(N)=O)NC(=O)[C@H](C)NC(=O)[C@H](CC(C)C)NC(=O)[C@H](CCCNC(=N)N)NC(=O)[C@H](CCC(N)=O)NC(=O)[C@@H](NC(=O)[C@H](C)NC(=O)[C@@H]1CSSC[C@H](NC(=O)[C@@H](N)CCCCNC(=O)CC[C@H](NC(=O)CCCCCCCCCCCCCCCCCCC(=O)O)C(=O)O)C(=O)N[C@@H](CC(N)=O)C(=O)N[C@@H]([C@@H](C)O)C(=O)N[C@@H](C)C(=O)N[C@@H]([C@@H](C)O)C(=O)N1)[C@@H](C)O)C(=O)N1CCC[C@H]1C(=O)N[C@@H](CO)C(=O)N[C@@H](CO)C(=O)N[C@H](C(=O)N[C@@H](CC(N)=O)C(=O)N[C@H](C(=O)NCC(=O)N[C@@H](CO)C(=O)N[C@@H](Cc1c[nH]cn1)C(=O)N[C@H](C(=O)N[C@@H](Cc1ccc(O)cc1)C(N)=O)[C@@H](C)O)C(C)C)[C@@H](C)O
notes: also called compound 60

The target of this assay is T1, human calcitonin receptor. Briefly: SPA competition with 125I-calcitonin, membranes of BHK hCTR cells (Assay VII). In a few lines:
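BHK hCTR membranes 35 ng/μL + SPA beads 0.05 mg/well; buffer 50 mM Hepes pH 7.4, 1 mM CaCl2, 5 mM MgCl₂, 0.1% OA, 0.02% Tween20. 120 min, 25° C., shaking. Scintillation count; IC50 by one-site binding competition.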
A word on the IC50: it is the concentration at which inhibition is half-maximal. Regarding B1, the IC50 was found to be 34.5 nM. Turning to B2, the IC50 was found to be 31.1 nM. The same measure for B3: 18 nM. For the molecule B4, the IC50 was 48.8 nM. For the molecule B5, the IC50 stood at 31.4 nM.
